Measured values: publication doi:10.1101/200493
Read-outs that look alike come from different tables or passages of the source.

Key:
[1] = target: His-tagged human recombinant αVβ3 integrin (human) (UniProt P06756); assay: BLI
[2] = target: His-tagged human recombinant αVβ3 integrin (human) (UniProt P06756); assay: BLI; remark: listed apart in the source

Sequence of His-tagged human recombinant αVβ3 integrin (human) (P06756 31-1048, chain 1 of 2): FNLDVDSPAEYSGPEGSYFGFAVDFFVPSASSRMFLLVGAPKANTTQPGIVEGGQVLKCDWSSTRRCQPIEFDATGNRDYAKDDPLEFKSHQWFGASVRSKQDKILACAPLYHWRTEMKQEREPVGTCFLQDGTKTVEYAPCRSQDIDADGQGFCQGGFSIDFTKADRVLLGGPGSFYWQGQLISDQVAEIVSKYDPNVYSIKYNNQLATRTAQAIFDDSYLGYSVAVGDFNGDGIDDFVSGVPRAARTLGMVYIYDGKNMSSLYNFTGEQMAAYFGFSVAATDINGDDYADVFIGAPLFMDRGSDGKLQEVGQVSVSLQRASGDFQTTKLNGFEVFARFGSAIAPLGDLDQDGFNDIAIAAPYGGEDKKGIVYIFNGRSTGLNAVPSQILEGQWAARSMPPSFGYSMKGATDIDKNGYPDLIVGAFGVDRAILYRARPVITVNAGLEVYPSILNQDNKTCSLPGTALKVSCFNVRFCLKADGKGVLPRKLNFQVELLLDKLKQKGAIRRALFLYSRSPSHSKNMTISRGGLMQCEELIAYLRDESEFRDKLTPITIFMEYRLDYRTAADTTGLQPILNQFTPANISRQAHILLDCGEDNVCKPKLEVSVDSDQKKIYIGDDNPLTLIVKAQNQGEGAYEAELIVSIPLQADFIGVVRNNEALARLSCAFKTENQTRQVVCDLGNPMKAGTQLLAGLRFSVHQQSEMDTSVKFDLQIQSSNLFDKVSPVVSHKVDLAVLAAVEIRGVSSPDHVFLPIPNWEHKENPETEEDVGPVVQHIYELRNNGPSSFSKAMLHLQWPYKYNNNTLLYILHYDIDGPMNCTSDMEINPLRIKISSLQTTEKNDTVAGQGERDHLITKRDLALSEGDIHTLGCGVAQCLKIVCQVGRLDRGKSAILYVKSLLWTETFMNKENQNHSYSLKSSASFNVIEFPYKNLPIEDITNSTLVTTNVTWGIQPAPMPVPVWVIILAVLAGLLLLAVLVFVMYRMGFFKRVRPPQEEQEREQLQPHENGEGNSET
Sequence of His-tagged human recombinant αVβ3 integrin (human) (P05106 27-718, chain 2 of 2, further chain): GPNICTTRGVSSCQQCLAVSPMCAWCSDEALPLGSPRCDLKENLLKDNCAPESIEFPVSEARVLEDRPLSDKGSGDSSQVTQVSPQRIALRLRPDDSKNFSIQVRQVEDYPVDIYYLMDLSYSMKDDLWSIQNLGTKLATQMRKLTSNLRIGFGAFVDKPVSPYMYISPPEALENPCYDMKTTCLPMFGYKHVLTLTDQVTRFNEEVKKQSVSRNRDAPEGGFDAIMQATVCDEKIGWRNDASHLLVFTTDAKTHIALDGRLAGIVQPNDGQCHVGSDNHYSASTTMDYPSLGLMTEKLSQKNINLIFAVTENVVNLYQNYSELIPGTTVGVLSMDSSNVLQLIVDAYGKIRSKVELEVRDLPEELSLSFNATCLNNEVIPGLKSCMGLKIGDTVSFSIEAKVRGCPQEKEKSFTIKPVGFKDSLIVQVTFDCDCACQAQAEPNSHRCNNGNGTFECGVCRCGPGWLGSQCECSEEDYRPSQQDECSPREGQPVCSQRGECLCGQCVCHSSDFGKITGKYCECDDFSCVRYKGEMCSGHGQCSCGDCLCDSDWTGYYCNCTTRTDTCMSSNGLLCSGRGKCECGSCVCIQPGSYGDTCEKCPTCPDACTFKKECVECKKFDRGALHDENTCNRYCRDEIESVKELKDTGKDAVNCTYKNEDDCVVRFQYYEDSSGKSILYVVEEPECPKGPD
Sequence of human vitronectin (P04004 20-478): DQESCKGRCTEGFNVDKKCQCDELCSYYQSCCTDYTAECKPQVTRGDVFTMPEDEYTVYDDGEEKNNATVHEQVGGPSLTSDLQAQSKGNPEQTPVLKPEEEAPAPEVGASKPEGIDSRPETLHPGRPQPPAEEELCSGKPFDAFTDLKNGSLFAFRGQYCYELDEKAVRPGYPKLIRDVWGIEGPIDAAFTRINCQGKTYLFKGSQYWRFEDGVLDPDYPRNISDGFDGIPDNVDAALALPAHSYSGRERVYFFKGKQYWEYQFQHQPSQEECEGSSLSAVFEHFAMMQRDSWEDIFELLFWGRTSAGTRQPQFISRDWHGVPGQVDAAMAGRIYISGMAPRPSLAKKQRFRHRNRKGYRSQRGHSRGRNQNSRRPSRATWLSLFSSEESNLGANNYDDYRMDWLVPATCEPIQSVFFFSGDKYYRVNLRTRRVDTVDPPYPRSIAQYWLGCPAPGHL

Substance | Kd [1] [nM] | Kd [2] [nM]
native human fibrinogen (from UniProt P02671 36-866; P02675 45-491; P02679 27-453) (ligand) | 8.15 | –
human plasma fibronectin (ligand) | 54 | –
human vitronectin (from UniProt P04004 20-478) (ligand) | < 0.001 | 303
